Test results published in patent publication US20130303441.

Experiments:
[1] = target: T1, pIRS-1 peptide substrate, RREGGMSRPAS(p)VDG
T1 chain: RREGGMSRPASVDG

[2] = target: T2, p9CREB peptide substrate, ILSRRPS(p)YR
T2 chain: ILSRRPSYR

[3] = target: T3, pGS-1 peptide substrate, YRRAAVPPSPSLSRHSSPSQS(p)EDEEE
T3 chain: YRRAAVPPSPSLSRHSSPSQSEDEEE

[4] = target: T4, L803-mts, cell permeable variant of L803 with myristic acid attached to its N-terminal
T4 chain: GKEAPPAPPQSP

B1: GSK-3β F93A mutant (protein)
chain: MSGRPRTTSFAESCKPVQQPSAFGSMKVSRDKDGSKVTTVVATPGQGPDRPQEVSYTDTKVIGNGSFGVVYQAKLCDSGELVAIKKVLQDKRAKNRELQIMRKLDHCNIVRLRYFFYSSGEKKDEVYLNLVLDYVPETVYRVARHYSRAKQTLPVIYVKLYMYQLFRSLAYIHSFGICHRDIKPQNLLLDPDTAVLKLCDFGSAKQLVRGEPNVSYICSRYYRAPELIFGATDYTSSIDVWSAGCVLAELLLGQPIFPGDSGVDQLVEIIKVLGTPTREQIREMNPNYTEFKFPQIKAHPWTKDSSGTGHFTSGVRVFRPRTPPEAIALCSRLLEYTPTARLTPLEACAHSFFDELRDPNVKLPNGRDTPALFNFTTQELSSNPPLATILIPPHARIQAAASTPTNATAASDANTGDRGQTNNAASASASNST
Protein B1 has a Substrate phosphorylation (% of WTGSK-3β), in vitro kinase assay (% of WT GSK-3β) [1] of 42, a Substrate phosphorylation (% of WTGSK-3β), in vitro kinase assay (% of WT GSK-3β) [2] of 46 and a Substrate phosphorylation (% of WTGSK-3β), in vitro kinase assay (% of WT GSK-3β) [3] of 13.

B2: GSK-3β D90A mutant (protein)
chain: MSGRPRTTSFAESCKPVQQPSAFGSMKVSRDKDGSKVTTVVATPGQGPDRPQEVSYTDTKVIGNGSFGVVYQAKLCDSGELVAIKKVLQAKRFKNRELQIMRKLDHCNIVRLRYFFYSSGEKKDEVYLNLVLDYVPETVYRVARHYSRAKQTLPVIYVKLYMYQLFRSLAYIHSFGICHRDIKPQNLLLDPDTAVLKLCDFGSAKQLVRGEPNVSYICSRYYRAPELIFGATDYTSSIDVWSAGCVLAELLLGQPIFPGDSGVDQLVEIIKVLGTPTREQIREMNPNYTEFKFPQIKAHPWTKDSSGTGHFTSGVRVFRPRTPPEAIALCSRLLEYTPTARLTPLEACAHSFFDELRDPNVKLPNGRDTPALFNFTTQELSSNPPLATILIPPHARIQAAASTPTNATAASDANTGDRGQTNNAASASASNST
With B2 the Substrate phosphorylation (% of WTGSK-3β), in vitro kinase assay (% of WT GSK-3β) [1] was 88, the Substrate phosphorylation (% of WTGSK-3β), in vitro kinase assay (% of WT GSK-3β) [2] was 92 and the Substrate phosphorylation (% of WTGSK-3β), in vitro kinase assay (% of WT GSK-3β) [3] was 83.

B3: GSK-3β K94A mutant (protein)
chain: MSGRPRTTSFAESCKPVQQPSAFGSMKVSRDKDGSKVTTVVATPGQGPDRPQEVSYTDTKVIGNGSFGVVYQAKLCDSGELVAIKKVLQDKRFANRELQIMRKLDHCNIVRLRYFFYSSGEKKDEVYLNLVLDYVPETVYRVARHYSRAKQTLPVIYVKLYMYQLFRSLAYIHSFGICHRDIKPQNLLLDPDTAVLKLCDFGSAKQLVRGEPNVSYICSRYYRAPELIFGATDYTSSIDVWSAGCVLAELLLGQPIFPGDSGVDQLVEIIKVLGTPTREQIREMNPNYTEFKFPQIKAHPWTKDSSGTGHFTSGVRVFRPRTPPEAIALCSRLLEYTPTARLTPLEACAHSFFDELRDPNVKLPNGRDTPALFNFTTQELSSNPPLATILIPPHARIQAAASTPTNATAASDANTGDRGQTNNAASASASNST
For B3, the Substrate phosphorylation (% of WTGSK-3β), in vitro kinase assay (% of WT GSK-3β) [1] was 52, the Substrate phosphorylation (% of WTGSK-3β), in vitro kinase assay (% of WT GSK-3β) [2] was 71 and the Substrate phosphorylation (% of WTGSK-3β), in vitro kinase assay (% of WT GSK-3β) [3] was 19.

B4: GSK-3β K91A mutant (protein)
chain: MSGRPRTTSFAESCKPVQQPSAFGSMKVSRDKDGSKVTTVVATPGQGPDRPQEVSYTDTKVIGNGSFGVVYQAKLCDSGELVAIKKVLQDARFKNRELQIMRKLDHCNIVRLRYFFYSSGEKKDEVYLNLVLDYVPETVYRVARHYSRAKQTLPVIYVKLYMYQLFRSLAYIHSFGICHRDIKPQNLLLDPDTAVLKLCDFGSAKQLVRGEPNVSYICSRYYRAPELIFGATDYTSSIDVWSAGCVLAELLLGQPIFPGDSGVDQLVEIIKVLGTPTREQIREMNPNYTEFKFPQIKAHPWTKDSSGTGHFTSGVRVFRPRTPPEAIALCSRLLEYTPTARLTPLEACAHSFFDELRDPNVKLPNGRDTPALFNFTTQELSSNPPLATILIPPHARIQAAASTPTNATAASDANTGDRGQTNNAASASASNST
In the case of B4, the Substrate phosphorylation (% of WTGSK-3β), in vitro kinase assay (% of WT GSK-3β) [1] is reported as 140, the Substrate phosphorylation (% of WTGSK-3β), in vitro kinase assay (% of WT GSK-3β) [2] is reported as 161 and the Substrate phosphorylation (% of WTGSK-3β), in vitro kinase assay (% of WT GSK-3β) [3] is reported as 119.

B5: GSK-3β R92A mutant (protein)
chain: MSGRPRTTSFAESCKPVQQPSAFGSMKVSRDKDGSKVTTVVATPGQGPDRPQEVSYTDTKVIGNGSFGVVYQAKLCDSGELVAIKKVLQDKAFKNRELQIMRKLDHCNIVRLRYFFYSSGEKKDEVYLNLVLDYVPETVYRVARHYSRAKQTLPVIYVKLYMYQLFRSLAYIHSFGICHRDIKPQNLLLDPDTAVLKLCDFGSAKQLVRGEPNVSYICSRYYRAPELIFGATDYTSSIDVWSAGCVLAELLLGQPIFPGDSGVDQLVEIIKVLGTPTREQIREMNPNYTEFKFPQIKAHPWTKDSSGTGHFTSGVRVFRPRTPPEAIALCSRLLEYTPTARLTPLEACAHSFFDELRDPNVKLPNGRDTPALFNFTTQELSSNPPLATILIPPHARIQAAASTPTNATAASDANTGDRGQTNNAASASASNST
In the case of B5, the Substrate phosphorylation (% of WTGSK-3β), in vitro kinase assay (% of WT GSK-3β) [1] is reported as 60, the Substrate phosphorylation (% of WTGSK-3β), in vitro kinase assay (% of WT GSK-3β) [2] is reported as 49 and the Substrate phosphorylation (% of WTGSK-3β), in vitro kinase assay (% of WT GSK-3β) [3] is reported as 41.

B6: wild-type (WT) GSK-3β (protein)
chain: MSGRPRTTSFAESCKPVQQPSAFGSMKVSRDKDGSKVTTVVATPGQGPDRPQEVSYTDTKVIGNGSFGVVYQAKLCDSGELVAIKKVLQDKRFKNRELQIMRKLDHCNIVRLRYFFYSSGEKKDEVYLNLVLDYVPETVYRVARHYSRAKQTLPVIYVKLYMYQLFRSLAYIHSFGICHRDIKPQNLLLDPDTAVLKLCDFGSAKQLVRGEPNVSYICSRYYRAPELIFGATDYTSSIDVWSAGCVLAELLLGQPIFPGDSGVDQLVEIIKVLGTPTREQIREMNPNYTEFKFPQIKAHPWTKDSSGTGHFTSGVRVFRPRTPPEAIALCSRLLEYTPTARLTPLEACAHSFFDELRDPNVKLPNGRDTPALFNFTTQELSSNPPLATILIPPHARIQAAASTPTNATAASDANTGDRGQTNNAASASASNST
For B6, the “in vitro kinase assays using pIRS-1, p9CREB and pGS-1 substrate in the presence or absence of L803-mts (100 µM)” value [4] was “L803-mts competes with various substrates”.
